Experimental findings from article PMC10415184, “A placental model of SARS-CoV-2 infection reveals ACE2-dependent susceptibility and differentiation impairment in syncytiotrophoblasts” (Nature Cell Biology, 2023) are described below.

Sequences and labels used below:
B1: WCSL IgG1 (sheet row 12) (antibody, V domains shown)
VH: EVQLLESGGGLVQPGGSLRLSCAASGFTFSSYWMHWVRQAPGKGLEWVSAISGSGGSTYYADSVKGRFTISRDNSKNTLYLQMNSLRAEDTAVYYCARDTPLYYDFWSGDAFDIWGQGTMVTVSS
VL: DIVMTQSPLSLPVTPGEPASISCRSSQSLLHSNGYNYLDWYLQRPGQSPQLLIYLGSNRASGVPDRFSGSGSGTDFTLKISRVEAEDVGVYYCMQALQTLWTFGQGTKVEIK
B2: WCSL IgG1 (sheet row 4) (antibody, V domains shown)
VH: EVQLLESGGGLVQPGGSLRLSCAASGFTFRNYAMSWVRQAPGKGLEWVSAISGSGSGTYYADSVKGRFTISRDNSKNTLYLQMNSLRAEDTAVYYCAKEGARIHWGQGTLVTVSS
VL: not shown
B3: WCSL IgG1 (sheet row 9) (antibody, V domains shown)
VH: EVQLVESGGGLVQPGGSLRLSCAASGFTFRNYAMSWVRQAPGKGLEWVSAISGSGSGTYYADSVKGRFTISRDNSKNTLYLQMNSLRAEDTAVYYCAKEGARIHWGQGTLVTVSS
VL: DIVMTQSPLSLSVTPGEPASISCRSSQSLLHSNGNNYFDWYLQKPGQAPQLLIYLGSNRASGVPDRFSGSGSGTDFTLKISRVEAEDVGVYYCMQALQTPWTFGQGTKVEIK
B4: WCSL IgG1 (sheet row 18) (antibody, V domains shown)
VH: EVQLVESGGGVVQPGRSLRLSCAASGFTFSSYGMHWVRQAPGKGLEWVSYIYPSGGGAYYADSVQGRFTVSRDNAKNSVYLQMNSLRVEDTAVYYCTRDFWSAPIPMWGQGTLVTVSS
VL: DIVMTQSPVSLPVTPGEPASISCRSSQSLLHSNGHNYLNWYLQKPGQSPHLLIYLGSNRASGVPDRFSGSGSGTDFTLNISRVEAEDVGVYYCMQALQTPWTFGQGTKVEIK
B5: WCSL IgG1 (sheet row 6) (antibody, V domains shown)
VH: QVQLVESGGGLIQPGGSLRLSCAASGFLVSSKYMSWVRQAPGKGLEWVSSIYSGGDTYYADSVKGRFTISRDNSKNTLSLQMHSLKADDTAVYYCARGATGYSDSWYENWGQGTLVTVSS
VL: DIVMTQSPLSLPVTPGEPASISCRPSQSLLHSNGNNYLDWYLQKPGQSPQLLIYLGSNRASGVPDRFSGSGSGTDFTLRISSVEAEDVGVYYCMQALQNPLTFGQGTRLEIK
B6: WCSL IgG1 (sheet row 14) (antibody, V domains shown)
VH: VESGGGLVQPGGSLRLSCVASGAASGFTFSTESMNWVRQAPGKGLEWVSYIYPSGGGAYYADSVQGRFTVSRDNAKNSVYLQMNSLRVEDTAVYYCVRHQYGDYPSWGQGTPVTVSS
VL: DIVMTQSPLSLSVTPGEPASISCRSSQSLLHSNGFNYFDWYLQKPGQSPQLLIYLGSNRASGVPDRFSGSGSGTDFTLKISRVEAEDVGVYYCMQGLQIPYTFGQGTKLEIK
B7: WCSL IgG1 (sheet row 19) (antibody, V domains shown)
VH: EVQLVESGGGVVQPGRSLRLSCAASGFTFSNYAMSWVRQAPGKGLEWVSGISGSGGSTYYADSVKGRFTISRDNSKNTLYLQMNSLRAEDTAVYYCARDRGYSYAAFQHWGQGTLVTVSS
VL: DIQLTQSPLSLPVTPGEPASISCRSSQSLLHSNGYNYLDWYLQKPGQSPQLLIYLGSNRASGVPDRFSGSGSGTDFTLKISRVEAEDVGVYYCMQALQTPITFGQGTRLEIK
B8: WCSL IgG1 (sheet row 8) (antibody, V domains shown)
VH: QLQLQESGPGLVKPSETLSLTCTVSGGSISSSSYYWGWIRQPPGKGLEWIGSIYYSGSTYYNPSLKSRVTISVDTSKNQFSLKLSSVTAADTAVYYCASSPRNWGSPRFAFDIWGQGTMVTVSS
VL: QSVLTQPPSVSGAPGQRVTISCTGTTSNIGAGYDVHWYQQLPGTAPKLLIFGNTNRPSGVPERFSASRSGTSASLAITGLQTTDEADYYCQSYDNSLSGSRVFGGGTKLTVL
B9: WCSL IgG1 (sheet row 13) (antibody, V domains shown)
VH: EVQLVESGGGLVKPGGSLRLSCAASGFTFSSYSMNWVRQAPGKGLEWVSSISSSSSYIYYADSVKGRFTISRDNAKNSLYLQMNSLRAEDTAVYYCARATTVVTPGYFQHWGQGTLVTVSS
VL: EIVLTQSPATLSLSPGQRATLSCRASQSVSSSLAWYQQKPGQAPRLLIYDASDRATDIPARFSGSGSGTDFTLTISSLEPEDFAVYYCQQRTNWPPLTFGGGTKVEIK
B10: WCSL IgG1 (sheet row 10) (antibody, V domains shown)
VH: EVQLVESGGGLVKPGGSLRLSCAASGFTFSSYSMNWVRQAPGKGLEWVSSISSSSGYIYYSDSLKGRFTISRDNAKNSLYLQMNSLTAEDTAVYYCAREGHIASRGWGWFDSWGQGTLVTVSS
VL: DIVMTQSPVSLAVTPGESASISCRSSQSLLHRNGYNYVDWYLQKPGQSPQLLIYLGSTRASGVPDRFSGSGSGTDFSLQITRVEAEDVGVYYCMQPLEIPLTFGGGTKLEIK
B11: WCSL IgG1 (sheet row 16) (antibody, V domains shown)
VH: QITLKESGPTLVKPTQTLTLTCTFSGFSLSTSGVGVGWIRQPPGKALEWLALIYWDDDKRYSPSLKSRLTITRDTSKNLVVLTMINMDPVDTATYYCAHSHSTTWGAFDYWGQGTLVTVSS
VL: DIVMTQSPDSLAVSLGERATINCKSSRSVLYTYNNKDDVAWYQQKPGQPPKLLIYWASTRESGVPDRFSGSGSGTDFTLTISSLQAEDVAVYYCQQYYSAPLTFGGGPRWRSN

In the assay the target is recombinant human ACE2 (Homo sapiens, UniProt Q9BYF1).
Sequence of recombinant human ACE2 (Q9BYF1 18-805): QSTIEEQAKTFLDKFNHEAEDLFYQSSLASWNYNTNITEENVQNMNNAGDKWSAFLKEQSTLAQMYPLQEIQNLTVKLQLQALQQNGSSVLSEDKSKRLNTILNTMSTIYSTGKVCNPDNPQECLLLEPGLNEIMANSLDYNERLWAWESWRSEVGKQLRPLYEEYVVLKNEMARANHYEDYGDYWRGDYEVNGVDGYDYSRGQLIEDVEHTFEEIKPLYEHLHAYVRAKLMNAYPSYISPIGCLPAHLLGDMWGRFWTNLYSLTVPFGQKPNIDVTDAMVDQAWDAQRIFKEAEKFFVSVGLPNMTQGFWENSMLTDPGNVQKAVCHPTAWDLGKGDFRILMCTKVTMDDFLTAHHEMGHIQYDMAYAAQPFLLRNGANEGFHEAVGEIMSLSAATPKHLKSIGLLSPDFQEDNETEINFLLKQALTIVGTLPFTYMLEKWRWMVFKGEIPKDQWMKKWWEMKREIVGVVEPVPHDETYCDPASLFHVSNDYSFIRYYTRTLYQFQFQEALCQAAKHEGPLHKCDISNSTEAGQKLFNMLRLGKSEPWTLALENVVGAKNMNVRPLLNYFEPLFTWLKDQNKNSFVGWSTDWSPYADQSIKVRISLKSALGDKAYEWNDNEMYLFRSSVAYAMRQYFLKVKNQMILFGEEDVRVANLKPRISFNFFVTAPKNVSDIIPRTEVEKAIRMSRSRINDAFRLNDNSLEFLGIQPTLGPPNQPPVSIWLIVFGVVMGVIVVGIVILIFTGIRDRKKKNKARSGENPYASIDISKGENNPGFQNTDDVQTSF
Turning to B1, the binding result is on record as “binds”. The entry for B2 is “binds”.

Consider B3, for which the binding result was “binds”. With B4 the entry was “binds”; with B5, “binds”; with B6, “binds”. With B7, the binding result was “binds”.

Consider B8, for which the binding result is listed as “binds”. For B9, the binding result is “binds”. With B10 the entry was “binds”; with B11, “binds”.
